In paper PMC3817407:

B1: AS15_524 (protein)
chain: MNFGVEDMIEHVPMEDKRKGAAALDEARLRQQAIGVKLRQMFDEVVNEPVPDEFLAILRKAERPAGGE
B2: AS15_436 (protein)
chain: MAQSTEPKASPQEATAKGGDNTKGKSRKELQQQIDENLRRVYEEALVQEVPDRFAMLLDQLRQKGTGK
B3: AS04_1609 (protein)
chain: MNRTTEQRNAEVMKTIGLLDQMPRVEVDHLFRVRLMQRIEAMEVKKTSWSALPGGAFNPRLAFMALLLMLNIASALMLFMHGTPQATGSSGAIAESLTEDYGGPALSYYDDQTTIDR
B4: AS01_3473 (protein)
chain: MSNYDNAELLALWLEGKLTPKQRDEFEQRCIQDSQFAEQVDAAAMVKIGADDYSSSEVPQWNKAATFEPQQANNSGSWLSGVSLVTSALAIVLVLTGTQVTTSEGELRIRFGSGQSEQALVKLVDSKLDAFKQNQQDAFTLYAQTLQQQQSESASQLTNYLLSSSRKERREDFAELIKFVNQQRSDDQLFYARQLNQLQQDVYHDATGVALESIQQ
B5: AS22_1147 (protein)
chain: MELDDIAVAWRSLEQRLDQHAALAGQVLGDLRSHAARAHLRPLWLSQSAQLLCAIALSGLVAHSWLAFPEQAAAIVGGVLLQIWCVALAASAARQLWLLSQLDFARPLLQTQRALAQLRRWRTRVAPWLGVAFWVLWVAVADAAWRALTGRSLPYAWLLCNLLVGVLGGIGTWLGYRRLQRSGHPWLERLDTVHAGRSVARTETLLEQIARFQRE
B6: AS16_3622 (protein)
chain: MMKTDELISLLATAEGPVDRHALARRLGLALLAGLLGALLLTVALYGVRSDLAEVARTPLFWAKVALPTSLALLGLWLTQRLARPGVRGGALWGLLGVPLLLVWLGAAISLFGAPPEARADLIFGRTWRTCALNITLLSTPVFIAVFWALRGLAPTRLRQAGAAGGLLAGSTATLVYCLHCPEMGVPFWGLWYLLGMLVPTLLGAVLGPRLLRW
B7: AS20_992 (protein)
chain: MTPERFVHLADAYGADLQRWPSAERAAAQALLDCGDAQAVAALRQAHWLDSQLDRYQVPAPSPALAQRIIAAAQQPGAPFWSRYAGWLASLGWVGVGLTGVAAGMLAVALSLPLSTSAEALPSVFDQSDAEFVLSINAEEAEQ
B8: AS16_973 (protein)
chain: MKTDDLIALLAAGEGPVPRHAVGRRMAVAALGGLTAALLLTITLYGVRSDITEVAQTPLFWGKVAFPTSLALIGLWLTSRLARPGGKGAAGWKMLGLPLLLVWCGAAVSIAGAPVDARADLLFGRTWRTCALNIALLSVPAFVTVFWALKGLAPTRLRLAGAAGGLLAGSSATVAYCLHCPEMGVPFWGVWYVLGMLVPTVLGAWWGPRMLRW
B9: AS02_915 (protein)
chain: MEKTGQEWVSASVDGETDRQTLAELAADTDSHAKWQRYHLMGDAMRDELPQAMPLDLSARIAAALEDEPTILAPKVEREATQAPSRAVVVPFMRQLGQYGIAAAVALMAVVGVQNYQSTQDDAPLPVLNTRPLVGTATPVSLQTGPVANQNQGNANDQLLEQRRRINAYLQDHMLQQRLNTGAVVDDNSEVTPIPVNR
B10: AS03_1198 (protein)
chain: MDKDFDFDNIGKRTPYRTPDNFFEETQRKILERTVDEQRKKRRLKRIIPTVIAVAAVLAGILFTPSLRYMNTDTPSASNILAVDKNNVTTDPVDKWIKELSDEELEELVSFSENDIFLN
B11: AS27_1331 (protein)
chain: MSAADKDPDKHSADADPPLTVELLADLQAGLLDDATAARIRSRVRSDPQAQQILRALNRVRRDVAAMGADPAWGPAARPAVVDSISAALRSARPNSSPGAAHAARPHVHPVRMIAGAAGLCAVATAIGVGAVVDAPPPAPSAPTTAQHITVSKPAPVIPLSRPQVLDLLHHTPDYGPPGGPLGDPSRRTSCLSGLGYPASTPVLGAQPIDIDARPAVLLVIPADTPDKLAVFAVAPHCSAADTGLLASTVVPRA
B12: AS14_1324 (protein)
chain: MSGSRPEPEGHLAEQHLGDRLSALVDGELGHDARERVLAHVATCPKCKAEVDAQRRLKNVFAEAAPPAPSESFLARLQGLPGGGDSDGGGSPFSGLPGGFGASAASGVFGPRRDERFEFDYVPAGSHTPVLPSATSGRGFRIHEVGRHESDRSASRGLRFAFAAAGAVSLAAIALGGVTLGTPDTTTEARGSGSGSNVTPLRTPGSAAATGSESQRRRTAGPLLGQGQRALGDLPVASTTASAPLLPGMPAPAGGDARQQAVRALTTPVTAGAAAMSPLIRPLEAVPPLSLSSWSAAPEVRPPGLLAAPDPAPSPYPAASPAASSSPLR
B13: AS03_1244 (protein)
chain: MKQFDPDVNIRPKEDSIRHYSVPDDYFASFTDKLMAQIPAVKEENTVVVPSVALWPKLRPLLYLAASFLLMIGMFKAFSLFGVGSDTGRTTSTSAGLVALDHGDTRWSEDTDYRDFLHDNCAETVSDEWVLTDFSE
B14: AS25_1645 (protein)
chain: MNESFSQRQTDGDRRRGGDLEMKKNHTSHQHHTDSETPMGHNFEQFQRLSAYFDGEATPAERKEIQHLLDTDPQVKQQYQQLRQLKQALQLLPIPTSISAQYLGQRVLARLRRSQLRTLSLWGSGAIAALFVAGVMGQMPRLNFDRFAKNDPDQQPTAALVETSPQGEEALVVALNRPVLQIPKLATTESP
B15: AS11_987 (protein)
chain: MNKHPDNNLLEAYASGSIDAVSGLVVATHLETCSKCRAYVNQVEASQANTVSESPSEYSPEFDDMLNDIINAEPVNDNVVIQDTAFVNVAGKSFELPKTLVRFSDLVGSWRSYGGKVFSAQIDLGEDARVSLMYIGENVQIPQHTHRGLESTLVLHGGFSDEDGQYEEGDLMVRDASVKHSPFTQEGEDCLCLTVLTEPMIFTQGVARIFNLFGKGLYP
B16: AS25_1643_cl43 (protein)
chain: MTTDSNFNDPCRRQFSRDLPQKMARHTNEATGAMDMVKRDRFELLSAYLGGEVTAAERRQVEDWPANDVAVQRLYSRLLKLRQGIRTMPIPTAQQSPETTAEQVFAKVNRRSRLAWKLGGAAVAACVIGAVTNWLPGRQTGIPQLAQQPQEQPTQAVTTPDALPMIALNNPVIEIPKAAVASPTKFIQPQPQLGEIPPDIN
B17: AS22_4450 (protein)
chain: MELDDMKHAWQTLEQRLDQQAAQTGQLLGVVHEETVRSSLRPLWVAQTAQLLCALALAIVSARSWIPHTDQPVAVIGGVLLQAWCMALAISAMVQLQLLTQFNVAGPLLRTQHALARLRRWRTRVAPWLGVAFWVLWIAVADALWRALTGQTLPTDWLVLNLLVGVAGGIGTWLGFRRLQRAQHPWLERIDRAHAGTGVIRAERMLEEIARFQRD

Biological target: T1, ECF37_2513
T1 chain: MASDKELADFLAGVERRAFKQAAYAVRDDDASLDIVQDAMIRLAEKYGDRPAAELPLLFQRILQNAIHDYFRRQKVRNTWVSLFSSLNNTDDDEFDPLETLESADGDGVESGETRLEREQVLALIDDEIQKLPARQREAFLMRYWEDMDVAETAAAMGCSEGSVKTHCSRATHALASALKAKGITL

Binder	fold repression
B1	4.17
B2	5.1
B3	2.72
B4	1.38
B5	3.66
B6	4.97
B7	1.98
B8	1.04
B9	2.48
B10	1.07
B11	2.75
B12	3.89
B13	1.89
B14	7.52
B15	1.66
B16	1.9
B17	1.51

Biological target: T2, ECF27_4265
T2 chain: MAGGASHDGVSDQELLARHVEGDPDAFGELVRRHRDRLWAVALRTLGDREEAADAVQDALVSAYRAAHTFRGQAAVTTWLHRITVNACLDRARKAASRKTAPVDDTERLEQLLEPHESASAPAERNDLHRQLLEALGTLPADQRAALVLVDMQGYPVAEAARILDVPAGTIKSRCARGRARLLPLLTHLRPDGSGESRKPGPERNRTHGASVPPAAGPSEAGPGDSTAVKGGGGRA

Binder	fold repression
B1	4.51
B2	2.89
B3	3.11
B4	1.92
B5	1.86
B6	1.45
B7	1.1
B8	0.412
B9	2.08
B10	0.852
B11	5.34
B12	2.31
B13	1.61
B14	24.5
B15	2.05
B16	0.954
B17	1.4

Biological target: T3, ECF38_1322
T3 chain: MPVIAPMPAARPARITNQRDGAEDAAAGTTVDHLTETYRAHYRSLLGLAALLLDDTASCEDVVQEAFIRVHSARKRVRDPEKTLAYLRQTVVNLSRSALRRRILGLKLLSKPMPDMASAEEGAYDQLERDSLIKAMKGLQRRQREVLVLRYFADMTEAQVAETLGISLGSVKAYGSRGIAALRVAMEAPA

Binder	fold repression
B1	4.8
B2	2.66
B3	3.12
B4	1.27
B5	1.99
B6	2.34
B7	1.72
B8	0.629
B9	2.24
B10	1.07
B11	3.98
B12	2.76
B13	1.68
B14	3.98
B15	2.08
B16	0.931
B17	1.78

Biological target: T4, ECF30_35
T4 chain: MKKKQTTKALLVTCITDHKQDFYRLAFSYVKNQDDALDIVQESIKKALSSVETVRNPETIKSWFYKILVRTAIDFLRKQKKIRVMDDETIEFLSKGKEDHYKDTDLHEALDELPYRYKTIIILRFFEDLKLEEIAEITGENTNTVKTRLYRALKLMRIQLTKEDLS

Binder	fold repression
B1	5.98
B2	2.1
B3	1.99
B4	1.56
B5	2.04
B6	0.992
B7	1.61
B8	0.463
B9	2.79
B10	1.17
B11	3.98
B12	3.36
B13	1.54
B14	3.43
B15	2.89
B16	0.929
B17	1.54

Biological target: T5, ECF25_1645
T5 chain: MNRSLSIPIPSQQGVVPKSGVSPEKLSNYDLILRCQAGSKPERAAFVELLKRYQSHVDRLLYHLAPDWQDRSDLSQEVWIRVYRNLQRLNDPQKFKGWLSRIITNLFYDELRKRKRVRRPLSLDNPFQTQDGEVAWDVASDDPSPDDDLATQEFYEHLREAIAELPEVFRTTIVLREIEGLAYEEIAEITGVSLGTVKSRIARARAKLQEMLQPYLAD

Binder	fold repression
B1	3.69
B2	1.87
B3	1.06
B4	0.81
B5	2.27
B6	1.53
B7	1.3
B8	0.538
B9	1.99
B10	0.816
B11	3.12
B12	3.18
B13	1.37
B14	33.7
B15	2.46
B16	7.28
B17	1.42
